From patent US20250354149, “L-RNA APTAMER-ANTISENSE OLIGONUCLEOTIDE CONJUGATES AND USES THEREOF” (CITY UNIVERSITY OF HONG KONG, published 2025)

How the values were obtained:
DHX36 = target: T1, DHX36 (Homo sapiens, UniProt Q9H2U1 SEQ:1-1008); assay: EMSA; strong gel shift bands with DHX36; data not shown; exact label of the oligo not stated; conditions: label: 5' HEX; RNA G-quadruplex with 3' flank
T1 chain: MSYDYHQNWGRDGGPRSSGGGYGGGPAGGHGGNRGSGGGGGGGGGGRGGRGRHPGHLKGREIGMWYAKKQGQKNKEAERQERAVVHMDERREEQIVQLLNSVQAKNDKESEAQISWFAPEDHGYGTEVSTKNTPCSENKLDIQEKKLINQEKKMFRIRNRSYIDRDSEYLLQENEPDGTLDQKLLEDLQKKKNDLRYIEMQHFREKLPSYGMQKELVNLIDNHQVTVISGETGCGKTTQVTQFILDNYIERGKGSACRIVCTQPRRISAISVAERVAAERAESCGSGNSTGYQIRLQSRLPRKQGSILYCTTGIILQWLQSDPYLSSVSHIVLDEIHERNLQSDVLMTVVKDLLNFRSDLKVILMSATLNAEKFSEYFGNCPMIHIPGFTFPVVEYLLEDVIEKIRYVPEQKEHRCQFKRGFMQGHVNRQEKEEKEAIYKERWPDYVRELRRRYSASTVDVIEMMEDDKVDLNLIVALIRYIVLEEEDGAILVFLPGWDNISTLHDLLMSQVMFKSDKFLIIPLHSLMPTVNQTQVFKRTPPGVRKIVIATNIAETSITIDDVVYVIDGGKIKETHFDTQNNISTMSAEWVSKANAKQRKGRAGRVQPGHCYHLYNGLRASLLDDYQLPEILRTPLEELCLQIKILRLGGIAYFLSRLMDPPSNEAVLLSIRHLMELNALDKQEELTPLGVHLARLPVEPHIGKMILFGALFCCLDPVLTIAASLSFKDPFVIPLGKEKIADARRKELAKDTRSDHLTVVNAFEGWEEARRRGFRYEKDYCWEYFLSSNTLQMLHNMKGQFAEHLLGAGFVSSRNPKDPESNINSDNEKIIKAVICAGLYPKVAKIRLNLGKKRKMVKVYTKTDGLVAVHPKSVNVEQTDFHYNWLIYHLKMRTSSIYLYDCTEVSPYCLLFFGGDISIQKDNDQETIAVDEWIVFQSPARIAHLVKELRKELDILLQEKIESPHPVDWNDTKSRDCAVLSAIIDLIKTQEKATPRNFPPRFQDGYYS

[1] = target: T2, RHAU53 peptide (DHX36 rG4-binding domain) (synthetic construct, UniProt Q9H2U1 SEQ:1-53); assay: EMSA; 100 nM RHAU53; binding to APP rG4 region inhibited by L-Apt.4-1c-ASO15nt(APP); data not shown; 37 C, KCl, MgCl2; conditions: protein: synthetic; tags: none, chemically synthesized by Synpeptide; label: 5' HEX; RNA G-quadruplex with 3' flank
T2 sequence: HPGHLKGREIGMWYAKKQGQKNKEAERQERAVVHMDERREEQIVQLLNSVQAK
Protocol: L-Apt.4-1c-ASO15nt_{(APP)} conjugate was serial diluted, and then the conjugate and HEX APP rG4 wt region were firstly refolded by heating at 95° C. for 5 min, 25° C. for 5 min, then 4° C. for at least 30 min separately in buffer containing 150 mM KCl, 1 mM MgCl₂, 25 mM Tris-HCl (pH 7.5) and 8% sucrose separately. 48 nM DHX36 protein (SEQ ID NO: 41) (or 100 nM RHAU53 peptide (SEQ ID NO: 42)), HEX_APP rG4 wt region (SEQ ID NO: 12) and L-Apt.4-1c-ASO15nt_{(APP)} were mixed and incubated for 30 min at 37° C. for competition binding. Then, the samples were loaded and resolved in 6% (37.5:1, acrylamide/bis-acrylamide) native gel for 70min at 35 mA at 4° C. in the running buffer containing 50 mM KOAc, 25 mM Tris-HCl (pH 7.5), 1 mM MgCl₂ (for DHX36) or running at 12.5 mA for 75 min in buffer containing 0.5×TBE and 40 mM KOAc (for RHAU53). At last, gels were scanned using Typhoon laser-scanner platform (Cytiva). Gel pictures were analyzed by image J software.

GGGGCGGGUGGGGAGGGGUGCUCUGCUGGUCUUCAAUU (ssRNA) [APP rG4 wt region (HEX)]
binding result (DHX36): binds | binding result [1]: binds
